In article PMC10783487:

Target: T1, TbrCan2 E341A E341A (Thermoanaerobacter brockii subsp. finnii Ako-1 DSM 1457) (UniProt E8URK0)
T1 sequence: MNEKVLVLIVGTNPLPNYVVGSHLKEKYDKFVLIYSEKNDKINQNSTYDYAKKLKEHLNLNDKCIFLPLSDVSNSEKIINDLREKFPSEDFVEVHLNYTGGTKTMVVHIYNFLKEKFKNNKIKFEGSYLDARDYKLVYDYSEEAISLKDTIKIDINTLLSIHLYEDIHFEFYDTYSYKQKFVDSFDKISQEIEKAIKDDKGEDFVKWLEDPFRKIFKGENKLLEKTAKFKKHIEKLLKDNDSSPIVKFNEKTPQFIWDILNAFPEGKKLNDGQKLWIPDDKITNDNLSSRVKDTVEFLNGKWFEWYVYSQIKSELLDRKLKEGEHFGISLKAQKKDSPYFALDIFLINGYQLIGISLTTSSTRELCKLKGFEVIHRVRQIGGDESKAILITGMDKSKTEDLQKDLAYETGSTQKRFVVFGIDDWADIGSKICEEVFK
Test: EMSA

Substance ssRNA substrate has a Kd of 240 nM.
